Experimental findings from patent US20250262210A1 (TRUSTEES OF COLUMBIA UNIVERSITY IN THE CITY OF NEW YORK, published 2025) are described below.

Assay [1] addresses T1, USP47 (human, UniProt Q96K76 1-1375, limits assumed).
T1 sequence (looked up): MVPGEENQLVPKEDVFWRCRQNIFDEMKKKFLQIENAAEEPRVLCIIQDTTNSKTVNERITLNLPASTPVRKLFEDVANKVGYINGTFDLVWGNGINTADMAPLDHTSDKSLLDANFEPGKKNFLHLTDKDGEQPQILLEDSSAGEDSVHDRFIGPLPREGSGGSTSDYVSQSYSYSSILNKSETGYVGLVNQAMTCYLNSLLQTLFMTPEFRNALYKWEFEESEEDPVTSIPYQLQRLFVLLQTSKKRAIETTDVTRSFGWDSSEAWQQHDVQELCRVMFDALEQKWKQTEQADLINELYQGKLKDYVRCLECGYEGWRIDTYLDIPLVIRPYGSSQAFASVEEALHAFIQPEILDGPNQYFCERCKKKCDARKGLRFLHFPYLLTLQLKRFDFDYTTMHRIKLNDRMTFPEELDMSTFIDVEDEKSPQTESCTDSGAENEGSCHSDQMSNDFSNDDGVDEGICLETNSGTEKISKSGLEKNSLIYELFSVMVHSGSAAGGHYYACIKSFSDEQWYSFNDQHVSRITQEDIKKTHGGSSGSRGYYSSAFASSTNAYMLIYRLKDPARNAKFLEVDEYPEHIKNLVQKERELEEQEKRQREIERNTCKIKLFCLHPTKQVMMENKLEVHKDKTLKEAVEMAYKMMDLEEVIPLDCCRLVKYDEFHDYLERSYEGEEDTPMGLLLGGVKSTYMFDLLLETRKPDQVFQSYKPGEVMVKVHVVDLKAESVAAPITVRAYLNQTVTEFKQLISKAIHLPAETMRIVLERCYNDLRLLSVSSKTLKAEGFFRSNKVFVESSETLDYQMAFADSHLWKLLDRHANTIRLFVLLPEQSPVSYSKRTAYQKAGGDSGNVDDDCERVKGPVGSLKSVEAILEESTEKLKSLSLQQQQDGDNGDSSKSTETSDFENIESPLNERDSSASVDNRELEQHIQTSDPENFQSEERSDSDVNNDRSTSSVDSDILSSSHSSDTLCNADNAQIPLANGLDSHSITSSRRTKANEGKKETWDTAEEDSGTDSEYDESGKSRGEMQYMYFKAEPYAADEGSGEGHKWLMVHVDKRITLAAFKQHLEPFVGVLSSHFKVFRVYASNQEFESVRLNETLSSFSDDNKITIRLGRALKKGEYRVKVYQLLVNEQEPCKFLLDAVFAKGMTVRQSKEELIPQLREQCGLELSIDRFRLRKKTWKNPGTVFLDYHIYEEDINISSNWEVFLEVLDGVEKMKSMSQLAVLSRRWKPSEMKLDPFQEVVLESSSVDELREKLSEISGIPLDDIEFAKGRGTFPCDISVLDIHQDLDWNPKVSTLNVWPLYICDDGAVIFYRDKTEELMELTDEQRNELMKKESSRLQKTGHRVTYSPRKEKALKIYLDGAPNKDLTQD
Put plainly: IP/MS, LZTR1 R810W-FLAG, U87. The essentials: (§1)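 Extracted peptides in 3% acetonitrile/0.1% formic acid ran on a 50 cm C18 column into an Orbitrap Fusion, with MaxQuant identification and spectral counting.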

Assay [2] deals with KIF1B (human, UniProt O60333 2-1816, limits assumed). Put plainly: IP/MS, LZTR1 R810W-FLAG, U87. An outline of the steps:
as §1

Chain of KIF1B (O60333 2-1816 limits assumed): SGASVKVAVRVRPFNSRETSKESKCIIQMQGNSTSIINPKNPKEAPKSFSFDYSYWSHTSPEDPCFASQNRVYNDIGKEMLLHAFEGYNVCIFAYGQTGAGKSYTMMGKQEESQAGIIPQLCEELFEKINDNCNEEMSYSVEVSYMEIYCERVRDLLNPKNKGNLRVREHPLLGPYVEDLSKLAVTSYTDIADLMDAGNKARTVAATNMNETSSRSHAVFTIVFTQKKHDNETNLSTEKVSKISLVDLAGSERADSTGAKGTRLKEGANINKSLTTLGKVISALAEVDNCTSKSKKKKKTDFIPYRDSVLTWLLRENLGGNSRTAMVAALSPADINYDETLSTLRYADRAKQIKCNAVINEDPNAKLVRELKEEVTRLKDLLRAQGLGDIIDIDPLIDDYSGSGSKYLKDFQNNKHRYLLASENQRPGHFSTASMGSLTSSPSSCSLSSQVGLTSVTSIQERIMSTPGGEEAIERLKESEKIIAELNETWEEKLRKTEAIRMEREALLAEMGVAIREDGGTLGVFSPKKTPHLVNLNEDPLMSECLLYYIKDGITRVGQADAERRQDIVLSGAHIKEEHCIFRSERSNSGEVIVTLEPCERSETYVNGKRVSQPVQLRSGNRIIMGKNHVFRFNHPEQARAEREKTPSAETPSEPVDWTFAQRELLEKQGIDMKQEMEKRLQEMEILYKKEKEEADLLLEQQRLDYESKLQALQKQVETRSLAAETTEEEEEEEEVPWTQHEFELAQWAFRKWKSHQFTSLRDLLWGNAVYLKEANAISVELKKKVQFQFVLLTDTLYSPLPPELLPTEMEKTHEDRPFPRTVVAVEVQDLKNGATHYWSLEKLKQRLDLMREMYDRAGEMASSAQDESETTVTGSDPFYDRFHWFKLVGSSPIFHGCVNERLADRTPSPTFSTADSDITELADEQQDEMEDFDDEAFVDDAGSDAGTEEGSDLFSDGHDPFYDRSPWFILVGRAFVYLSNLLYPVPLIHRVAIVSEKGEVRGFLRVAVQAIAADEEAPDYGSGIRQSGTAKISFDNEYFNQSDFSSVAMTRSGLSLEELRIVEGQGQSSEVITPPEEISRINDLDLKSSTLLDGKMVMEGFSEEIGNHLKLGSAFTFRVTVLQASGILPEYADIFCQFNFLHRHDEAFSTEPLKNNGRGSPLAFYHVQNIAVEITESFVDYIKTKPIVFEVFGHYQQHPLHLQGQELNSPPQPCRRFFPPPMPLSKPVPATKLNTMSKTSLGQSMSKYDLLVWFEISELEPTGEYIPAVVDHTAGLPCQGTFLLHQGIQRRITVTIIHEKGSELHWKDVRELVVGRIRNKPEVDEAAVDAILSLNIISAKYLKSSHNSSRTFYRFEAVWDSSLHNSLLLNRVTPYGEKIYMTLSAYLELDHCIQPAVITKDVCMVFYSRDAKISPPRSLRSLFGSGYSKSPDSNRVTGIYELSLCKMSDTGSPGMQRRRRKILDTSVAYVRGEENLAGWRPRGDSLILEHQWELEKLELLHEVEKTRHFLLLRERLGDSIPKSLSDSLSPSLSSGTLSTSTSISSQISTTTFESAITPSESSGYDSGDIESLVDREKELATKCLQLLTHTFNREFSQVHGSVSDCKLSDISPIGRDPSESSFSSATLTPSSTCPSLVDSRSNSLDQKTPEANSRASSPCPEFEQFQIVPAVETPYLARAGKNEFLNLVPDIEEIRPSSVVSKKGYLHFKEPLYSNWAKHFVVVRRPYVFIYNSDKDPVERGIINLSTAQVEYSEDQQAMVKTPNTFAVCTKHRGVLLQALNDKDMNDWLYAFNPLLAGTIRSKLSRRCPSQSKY

B1: LZTR1 R810W-FLAG (other, human, UniProt Q8N653 1-840, looked up)
chain: MAGPGSTGGQIGAAALAGGARSKVAPSVDFDHSCSDSVEYLTLNFGPFETVHRWRRLPPCDEFVGARRSKHTVVAYKDAIYVFGGDNGKTMLNDLLRFDVKDCSWCRAFTTGTPPAPRYHHSAVVYGSSMFVFGGYTGDIYSNSNLKNKNDLFEYKFATGQWTEWKIEGRLPVARSAHGATVYSDKLWIFAGYDGNARLNDMWTIGLQDRELTCWEEVAQSGEIPPSCCNFPVAVCRDKMFVFSGQSGAKITNNLFQFEFKDKTWTRIPTEHLLRGSPPPPQRRYGHTMVAFDRHLYVFGGAADNTLPNELHCYDVDFQTWEVVQPSSDSEVGGAEVPERACASEEVPTLTYEERVGFKKSRDVFGLDFGTTSAKQPTQPASELPSGRLFHAAAVISDAMYIFGGTVDNNIRSGEMYRFQFSCYPKCTLHEDYGRLWESRQFCDVEFVLGEKEECVQGHVAIVTARSRWLRRKITQARERLAQKLEQEAAPVPREAPGVAAGGARPPLLHVAIREAEARPFEVLMQFLYTDKIKYPRKGHVEDVLLIMDVYKLALSFQLCRLEQLCRQYIEASVDLQNVLVVCESAARLQLSQLKEHCLNFVVKESHFNQVIMMKEFERLSSPLIVEIVRRKQQPPPRTPLDQPVDIGTSLIQDMKAYLEGAGAEFCDITLLLDGHPRPAHKAILAARSSYFEAMFRSFMPEDGQVNISIGEMVPSRQAFESMLRYIYYGEVNMPPEDSLYLFAAPYYYGFYNNRLQAYCKQNLEMNVTVQNVLQILEAADKTQALDMKRHCLHIIVHQFTKVSKLPTLWSLSQQLLLDIIDSLASHISDKQCAELGADI
notes: Stably expressed in U87 cells by lentivirus; also called LZTR1-FLAG-R810W; LZTR1 RW; not shown: FLAG tag
For the molecule B1, the binding result in assay [1] and in assay [2] was “binds” throughout.
